Where “and” joins values, the source holds several entries; their conditions need not be identical. Equal entries are not always repeated. Values belong to the binder of their own block, whether it stands above or below them.
Key:
[1] = target: mouse CTLA4-Fc fusion protein (mouse) (UniProt P09793); experiment: ELISA, binding to plate-bound mouse CTLA4-Fc
[2] = target: human CTLA-4Fc mutant protein M11 (human); experiment: ELISA on coated target; binder 10 ng/ml
mouse CTLA4-Fc (mouse) [3] = target: mouse CTLA4-Fc (mouse) (UniProt P09793); experiment: ELISA on coated target; binder 10 ng/ml
[4] = target: human CTLA-4Fc mutant protein M11 (human); experiment: ELISA on coated target; binder 100 ng/ml
mouse CTLA4-Fc (mouse) [5] = target: mouse CTLA4-Fc (mouse) (UniProt P09793); experiment: ELISA on coated target; binder 100 ng/ml
[6] = target: human CTLA-4Fc mutant protein M11 (human); experiment: ELISA on coated target; binder 1000 ng/ml
mouse CTLA4-Fc (mouse) [7] = target: mouse CTLA4-Fc (mouse) (UniProt P09793); experiment: ELISA on coated target; binder 1000 ng/ml
[8] = target: human CTLA-4Fc mutant protein M11 (human); experiment: ELISA on coated target; binder 0 (background)
mouse CTLA4-Fc (mouse) [9] = target: mouse CTLA4-Fc (mouse) (UniProt P09793); experiment: ELISA on coated target; binder 0 (background)

human CTLA-4Fc mutant protein M11 (human), sequence (chain, as listed by the source mutant limits assumed): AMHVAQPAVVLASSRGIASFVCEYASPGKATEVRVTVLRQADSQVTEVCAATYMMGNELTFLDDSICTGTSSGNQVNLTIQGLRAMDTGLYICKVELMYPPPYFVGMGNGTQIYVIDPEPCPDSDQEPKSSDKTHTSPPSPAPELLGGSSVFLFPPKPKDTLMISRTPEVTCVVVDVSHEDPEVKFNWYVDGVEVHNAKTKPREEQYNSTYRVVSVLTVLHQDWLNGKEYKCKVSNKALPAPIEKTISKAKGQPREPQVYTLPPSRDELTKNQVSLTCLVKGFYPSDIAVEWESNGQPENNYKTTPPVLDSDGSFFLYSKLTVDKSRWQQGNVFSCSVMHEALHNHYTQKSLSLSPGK

EC50 (read off the curve) [1]: 1 µg/mL
B1: anti-mouse CTLA4 mAb 9H10 (antibody, from another filing)
scFv: YPYDVPDYAGAQPARSDIVMTQSPSSLAVSVGEKVTISCKSSQSLLYGSSHYLAWYQQKVGQSPKLLIYWASTRHTGIPDRFIGSGSGTDFTLSLSSVQAEDMADYFCQQYFSTPWTFGAGTRVEIKSGSGGGSGGGSGGGSQVQLLQSESELVKPGASVKLSCKTSGYTFTDYYIHWVKQKPGQGLEWIGLINPNNDGTNYNQKFQGKATLTADKSSSTAYMELNSLTFDDSVIYFCARASSRLRMARTTSDYYAMDYWGQGIQVTVSSVDSSGSGGCKPCICTVPEVSSVFIFPPKPKDVLTITLTPKVTCVVVDISKDDPEVQFSWFVDDVEVHTAQTQPREEQFNSTFRSVSELPIMHQDWLNGKEFKCRVNSAAFPAPIEKTISKTKGRPKAPQVYTIPPPKEQMAKDKVSLTCMITDFFPEDITVEWQWNGQPAENYKNTQPIMDTDGSYFVYSKLNVQKSNWEAGNTFTCSVLHEGLHNHHTEKSLSHSPGK

OD450 [2]: 0.19 OD and 0.194 OD
OD450 (mouse CTLA4-Fc (mouse) [3]): 0.201 OD and 0.18 OD
OD450 [4]: 0.752 OD and 0.746 OD
OD450 (mouse CTLA4-Fc (mouse) [5]): 0.303 OD and 0.314 OD
OD450 [6]: 2.89 OD and 2.91 OD
OD450 (mouse CTLA4-Fc (mouse) [7]): 0.942 OD and 0.94 OD
OD450 [8]: 0.171 OD and 0.155 OD
OD450 (mouse CTLA4-Fc (mouse) [9]): 0.19 OD and 0.189 OD
B2: chimeric L3D10 antibody (antibody, V domains shown)
VH: QVQLKESGPGLVAPSQSLSITCTVSGFSLTSYGLSWVRQPPGKGLEWLGVIWYDGNTNFHSALISRLTISKDNSKSQVFLELNSLQTDDTATYYCAKTEGHYYGSNYGYYALDYWGQGTSVTVSS
VL: DIQMTQSPASLSVSVGETVTITCRASENIYSNLAWYQQKQGKSPQLLVYAATNLADGVPSRFSGSGSGTQYSLKINSLQSEDFGTYFCQHLWGTPYTFGGGTKLEIKR
modifications: biotinylated (sites not given)

Source: patent publication US20190127468A1
